Source: patent EP3470428A1
One block for each binder: values may come before it.

What was measured:
[1] = target: human PD-L1-Fc chimeric protein (human) (UniProt Q9NZQ7); test: SPR (Biacore T200); PD-L1-Fc captured by anti-human Fc
[2] = target: human CD137-Fc chimeric protein (human) (UniProt Q07011); test: SPR (Biacore T200); CD137-Fc captured by anti-human Fc
Chain of human CD137-Fc chimeric protein (human) (Q07011 24-186, change not shown): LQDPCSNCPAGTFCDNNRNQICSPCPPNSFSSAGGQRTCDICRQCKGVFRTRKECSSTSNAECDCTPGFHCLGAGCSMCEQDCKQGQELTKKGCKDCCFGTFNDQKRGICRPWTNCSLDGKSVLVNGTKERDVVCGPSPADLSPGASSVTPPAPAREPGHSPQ

fold improvement in affinity against the CDR graft (PRO885) [1]: 20 fold
B1: PRO1126: 38-02-A04 sc01 scDb-i/33_03_G02 sc03 Full scDb-o (bispecific antibody)
chain: DFQLTQSPSSLSASVGDRVTITCQASQSINDYLAWYQQKPGKSPKLLIYKASTLASGVPSRFSGSGSGTDFTLTISSLQPEDFATYYCQQGYIITDIDNVFGTGTKVTVLGGGGGSQVQLQESGPGLVKPSETLSLTCKVSGFSFSNSYWICWIRQPPGKGLEWIGCTFVGSSDSTYYANWAKGRVTISVDSSKNQFSLKLSSVTAADTAVYYCARHPSDAVYGYANNLWGQGTLVTVSSGGGGSGGGGSGGGGSGGGGSIQMTQSPSSLSASVGDRVTITCQASQSINNVLAWYQQKPGKAPKLLIYRASTLASGVPSRFSGSGSGTDFTLTISSLQPEDFATYYCQSSYGNYGDFGTGTKVTVLGGGGGSQSQLQESGPGLVKPSETLSLTCKASGFSFSSGYDMCWVRQPPGKGLEWIACVVAGSVDITYYASWAKGRVTISKDSSKNQVSLKLSSVTAADTAVYFCARKDAYSDAFNLWGQGTLVTVSS

fold improvement of affinity against PRO885 [2]: > 200 fold
B2: PRO1124: 38-02-A04 sc06 Full scDb-i/33_03_G02 sc01 scDb-o (bispecific antibody)
chain: DIQMTQSPSSLSASVGDRVTITCQASQSINDYLAWYQQKPGKAPKLLIYKASTLASGVPSRFSGSGSGTDFTLTISSLQPEDFATYYCQQGYIITDIDNVFGTGTKVTVLGGGGGSQVQLQESGPGLVKPSETLSLTCKASGFSFSNSYWICWVRQPPGKGLEWIGCTFVGSSDSTYYANWAKGRVTISKDSSKNQVSLKLSSVTAADTAVYFCARHPSDAVYGYANNLWGQGTLVTVSSGGGGSGGGGSGGGGSGGGGSLQMTQSPSSLSASVGDRVTITCQASQSINNVLAWYQQKPGKPPKLLIYRASTLASGVPSRFSGSGSGTDFTLTISSLQPEDFATYYCQSSYGNYGDFGTGTKVTVLGGGGGSQVQLQESGPGLVKPSETLSLTCKVSGFSFSSGYDMCWIRQPPGKGLEWIGCVVAGSVDITYYASWAKGRVTISVDSSKNQFSLKLSSVTAADTAVYYCARKDAYSDAFNLWGQGTLVTVSS
